Biological target: ヒト可溶性CD4 (human soluble CD4 prepared in Example 2, C-terminal FLAG-tag, from COS7 cells) (human) (UniProt P01730)
Assay: SPR (BIAcore 2000), antibody amine-coupled on CM5, soluble CD4 as analyte

For 13B8.2抗体 (イムノテック社) (antibody), the Kd was 7.58 nM, the koff was 0.000138 s⁻¹ and the kon was 18200 M⁻¹ s⁻¹.

From patent JPH11332563A
